Experimental data from article PMC12623717.

Columns and labels:
[1] = biological target: Rotavirus strain SA11 nonstructural protein 2, wildtype, untagged (NSP2WT) (rotavirus strain SA11); experiment: crystal structure; sitting drop vapor diffusion, 20 °C; protein ~8 mg/mL in 10 mM Tris-HCl pH 7.2, 50 mM NaCl, 1 mM DTT; reservoir 100 mM Tris-HCl pH 7.5, 0.2 M magnesium acetate, 12% PEG6K; space group I422, 1 molecule per asymmetric unit, octamer with D4 symmetry
[2] = biological target: Rotavirus strain SA11 nonstructural protein 2 with the K294E change, untagged (NSP2 K294E) (rotavirus strain SA11); experiment: as above

Row | Substance | stoichiometry N [1] | stoichiometry N [2]
1 | Rotavirus strain SA11 nonstructural protein 2, wildtype, untagged (NSP2WT) (natural protein) | 8 | 
2 | Rotavirus strain SA11 nonstructural protein 2 with the K294E change, untagged (NSP2 K294E) (natural protein) |  | 8
